Source: patent US7019123

Target: Tissue Factor VIIa (UniProt P13726)
Experiment: enzyme inhibition; Tissue Factor VIIa

B1: recombinant placental bikunin (1-170) from baculovirus/Sf9 cells (protein)
chain: ADRERSIHDFCLVSKVVGRCRASMPRWWYNVTDGSCQLFVYGGCDGNSNNYLTKEECLKKCATVTENATGDLATSRNAADSSVPSAPRRQDSEDHSSDMFNYEEYCTANAVTGPCRASFPRWYFDVERNSCNNFIYGGCRGNKNSYRSEEACMLRCFRQQENPPLPLGSK
modifications: chain 1 pos 30: Asn probably N-glycosylated (no PTH residue at cycle 30), written N; six intrachain disulfides of the two Kunitz domains
  Ki: 800 nM
